# Measurements from US20170283834A1, “Processes for Producing A Fermentation Product Using A Fermenting Organism” (Novozymes A/S, priority 2014, published 2017).
# T1: aorsin (Aspergillus oryzae, UniProt Q8NK92)
# T1 sequence (Q8NK92 216-652): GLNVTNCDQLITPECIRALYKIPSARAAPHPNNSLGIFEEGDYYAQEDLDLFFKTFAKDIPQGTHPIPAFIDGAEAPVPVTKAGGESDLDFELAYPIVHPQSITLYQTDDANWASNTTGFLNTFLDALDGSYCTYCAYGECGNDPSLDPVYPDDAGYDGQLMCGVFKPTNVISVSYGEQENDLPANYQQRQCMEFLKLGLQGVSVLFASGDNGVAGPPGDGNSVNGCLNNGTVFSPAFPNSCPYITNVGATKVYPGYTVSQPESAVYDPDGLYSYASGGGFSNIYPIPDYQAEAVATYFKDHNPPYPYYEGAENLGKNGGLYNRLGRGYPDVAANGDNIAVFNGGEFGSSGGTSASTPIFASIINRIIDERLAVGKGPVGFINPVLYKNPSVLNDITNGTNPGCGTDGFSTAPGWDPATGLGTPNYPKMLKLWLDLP
# Assays:
# [1] = system: aspergillopepsin I; experiment: PE001 protease stability, SDS-PAGE after protease treatment; assay type: biochemical
# Experimental: (§1) 40 μl enzyme solutions (1 mg/ml) in 50 mM sodium acetate buffer, pH 4.5, were mixed with 1/10 volume of 1 mg/ml protease solutions such as aspergillopepsin I described in Biochem J. 1975 April; 147(1):45-53, or the commercially available product from Sigma and aorsin described in Biochemical journal [0264-6021] Ichishima yr: 2003 vol:371 iss:Pt 2 pg:541 and incubated at 4 or 32° C. overnight. As a control experiment, H2O was added to the sample instead of proteases. The samples were loaded on SDS-PAGE to see if the glucoamylases are cleaved by proteases.
# [2] = biological target: T1, aorsin; experiment: as above; assay type: biochemical
# Experimental: as §1
# [3] = Glucoamylase activity (AGU) of variant compared to parent; assay type: biochemical; details: 37° C., pH 4.3, maltose 100 mM
# Experimental: The Novo Glucoamylase Unit (AGU) is defined as the amount of enzyme, which hydrolyzes 1 micromole maltose per minute under the standard conditions 37° C., pH 4.3, substrate: maltose 23.2 mM, buffer: acetate 0.1 M, reaction time 5 minutes.
# An autoanalyzer system may be used. Mutarotase is added to the glucose dehydrogenase reagent so that any alpha-D-glucose present is turned into beta-D-glucose. Glucose dehydrogenase reacts specifically with beta-D-glucose in the reaction mentioned above, forming NADH which is determined using a photometer at 340 nm as a measure of the original glucose concentration.
# The glucoamylase activity measures as AGU as described above was checked for the purified enzymes of the wild type Penicillium oxalicum and the variant glucoamylase.
# The Glucoamylase Unit (AGU) was defined as the amount of enzyme, which hydrolyzes 1 micromole maltose per minute under the standard conditions (37° C., pH 4.3, substrate: maltose 100 mM, buffer: acetate 0.1 M, reaction time 6 minutes).
# [4] = system: host proteases; experiment: Cleavage during cultivation, SDS-PAGE of culture supernatants; set-up: species or system Aspergillus niger
# Experimental: Aspergillus transformant of the variant and the wild type Penicillium oxalicum glucoamylase were cultivated in 6-well MT plates containing 4× diluted YP-2% maltose medium supplemented with 10 mM sodium acetate buffer, pH4.5, at 32° C. for 1 week.
# The culture supernatants were loaded on SDS-PAGE.
# [5] = Penicillium oxalicum glucoamylase: temperature optimum (Reaction condition assay); assay type: biochemical; details: for Relative activity (%): Temperature optimum
# Experimental: (§2) Substrate: 1% soluble starch (Sigma S-9765) in deionized water
# Reaction buffer: 0.1 M Acetate buffer at pH 5.3 Glucose concentration determination kit: Wako glucose assay kit (LabAssay glucose, WAKO, Cat#298-65701).
# To assess the temperature optimum of the Penicillium oxalicum glucoamylase the “Reaction condition”-assay described above was performed at 20, 30, 40, 50, 60, 70, 80, 85, 90 and 95° C.
# [6] = Penicillium oxalicum glucoamylase: pH stability; assay type: biochemical
# Experimental: as §2
# 20 microL soluble starch and 50 microL acetate buffer at pH 5.3 were mixed. 30 microL enzyme solution (50 micro g enzyme protein/ml) was added to a final volume of 100 microL followed by incubation at 37° C. for 15 min.
# The glucose concentration was determined by Wako kits.
# pH optimum. To assess the pH optimum of the Penicillium oxalicum glucoamylase the Reaction condition assay described above was performed at pH 2.0, 3.0, 3.5, 4.0, 4.5, 5.0, 6.0 7.0, 8.0, 9.0, 10.0 and 11.0. Instead of using the acetate buffer described in the Reaction condition assay the following buffer was used 100 mM Succinic acid, HEPES, CHES, CAPSO, 1 mM CaCl2, 150 mM KCl, 0.01% Triton X-100, pH adjusted to 2.0, 3.0, 3.5, 4.0, 4.5, 5.0, 6.0 7.0, 8.0, 9.0, 10.0 or 11.0 with HCl or NaOH.
# To assess the […] of the Penicillium oxalicum glucoamylase the Reaction condition assay was modifed in that the enzyme solution (50 micro g/mL) was preincubated for 20 hours in buffers with pH 2.0, 3.0, 3.5, 4.0, 4.5, 5.0, 6.0 7.0, 8.0, 9.0, 10.0 and 11.0 using the buffers described under pH optimum. After preincubation, 20 microL soluble starch to a final volume of 100 microL was added to the solution and the assay was performed as described above.
# [7] = aspergillopepsin I, incubation 32° C. overnight
# [8] = culture supernatant, 32° C., 1 week
molecule,measurement,setting,value
"Penicillium oxalicum glucoamylase: wild type Penicillium oxalicum glucoamylase disclosed in SEQ ID NO: 9 (protein, listed as Penicillium oxalicum) MRLTLLSGVAGVLCAGQLTAARPDPKGGNLTPFIHKEGERSLQGILDNLGGRGKKTPGTAAGLFIASPNTENPNYYYTWTRDSALTAKCLIDLFEDSRAKFPIDRKYLETGIRDYVSSQAILQSVSNPSGTLKDGSGLGEPKFEIDLNPFSGAWGRPQRDGPALRATAMITYANYLISHGQKSDVSQVMWPIIANDLAYVGQYWNNTGFDLWEEVDGSSFFTIAVQHRALVEGSQLAKKLGKSCDACDSQPPQILCFLQSFWNGKYITSNINTQASRSGIDLDSVLGSIHTFDPEAACDDATFQPCSARALANHKVYVDSFRSIYKINAGLAEGSAANVGRYPEDVYQGGNPWYLATLGASELLYDALYQWDRLGKLEVSETSLSFFKDFDATVKIGSYSRNSKTYKKLTQSIKSYADGFIQLVQQYTPSNGSLAEQYDRNTAAPLSANDLTWSFASFLTATQRRDAVVPPSWGAKSANKVPTTCSASPVVGTYKAPTATFSSKTKCVPAKDIVPITFYLIENTYYGENVFMSGNITALGNWDAKKGFPLTANLYTQDQNLWFASVEFIPAGTPFEYKYYKVEPNGDITWEKGPNRVFVAPTGCPVQPHSNDVWQF",intact glucoamylase (ca. 70 kDa),"[1]; aspergillopepsin I, incubation 4° C. overnight",100%
same,cleaved glucoamylase (ca. 60 kDa),[1]; [7],10%
same,intact glucoamylase (ca. 70 kDa),[1]; [7],90%
same,SDS-PAGE result after protease treatment,"[1]; proteases (aspergillopepsin I, aorsin)",degraded by proteases
same,cleaved glucoamylase (ca. 60 kDa),[2]; incubation 4° C. overnight,60%
same,intact glucoamylase (ca. 70 kDa),[2]; incubation 4° C. overnight,40%
same,cleaved glucoamylase (ca. 60 kDa),[2]; incubation 32° C. overnight,90%
same,intact glucoamylase (ca. 70 kDa),[2]; incubation 32° C. overnight,10%
same,Relative specific activity AGU/mg,[3],100%
same,cleavage by host proteases during fermentation,[4],cleaved by host proteases during fermentation
same,cleaved glucoamylase (ca. 60 kDa),[4]; [8],10%
same,intact glucoamylase (ca. 70 kDa),[4]; [8],90%
same,activity maintained at 95° C.,[5]; 95° C.,more than 80%
same,Relative activity (%),[5]; 20° C.,63.6%
same,Relative activity (%),[5]; 30° C.,71.7%
same,Relative activity (%),[5]; 40° C.,86.4%
same,Relative activity (%),[5]; 50° C.,99.4%
same,Relative activity (%),[5]; 60° C.,94.6%
same,Relative activity (%),[5]; 70° C.,100.0%
same,Relative activity (%),[5]; 80° C.,92.9%
same,Relative activity (%),[5]; 85° C.,92.5%
same,Relative activity (%),[5]; 90° C.,82.7%
same,Relative activity (%),[5]; 95° C.,82.8%
same,Relative activity (%),[6]; preincubated 20 hours at pH 2.0,17.4%
same,Relative activity (%),[6]; preincubated 20 hours at pH 3.0,98.0%
same,Relative activity (%),[6]; preincubated 20 hours at pH 3.5,98.0%
same,Relative activity (%),[6]; preincubated 20 hours at pH 4.0,103.2%
same,Relative activity (%),[6]; preincubated 20 hours at pH 4.5,100.0%
same,Relative activity (%),[6]; preincubated 20 hours at pH 5.0,93.4%
same,Relative activity (%),[6]; preincubated 20 hours at pH 6.0,71.2%
same,Relative activity (%),[6]; preincubated 20 hours at pH 7.0,90.7%
same,Relative activity (%),[6]; preincubated 20 hours at pH 8.0,58.7%
same,Relative activity (%),[6]; preincubated 20 hours at pH 9.0,17.4%
same,Relative activity (%),[6]; preincubated 20 hours at pH 10.0,17.0%
same,Relative activity (%),[6]; preincubated 20 hours at pH 11.0,17.2%
